Biological target: murine EGFR (murine, UniProt Q01279 25-647, limits assumed)
Assay: not described (statement in the xenograft methods)

B1: P3X (antibody, V domains shown)
VH: QVQLVQSGAEVKKPGASVKVSCKASGYAFTSYGINWVRQAPGQGLEWMGWISAYNGNTYYAQKLRGRVTMTTDTSTSTAYMELRSLRSDDTAVYYCARDLGGYGSGSVPFDPWGQGTLVTVSS
VL: EIVMTQSPATLSVSPGERATLSCRASQSVSSNLAWYQQKPGQAPRLLIYGASTRATGIPARFSGSGSGTEFTLTISSLQSEDFAVYYCQDYRTWPRRVFGGGTKVEIK
notes: Fully human monoclonal antibody; Alexa Fluor 488-labelled in flow cytometry; also called P3X monoclonal antibody; third monoclonal antibody
B1: no binding.

Reference: US20160311908A1 (MERRIMACK PHARMACEUTICALS, published 2016)
